Measured values: a protein production outcome set (Wang et al. 2014)

Test: label from the status in PepcDB records
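Also: failed if final PepcDB status was selected cloned or expressed and not failed if soluble or beyond.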

Sequence | protein production
MLIRKITRKNPSPDVLEEAISVMEGGGIVIYPTDTIYGLGVNALDEDAVRRLFRVKGRSPHKPVSICVSCVDEIPRFSRPSGDAMELMERILPGPYTVVLERNELIPDVITGGSSRVGIRVPDDEICRRIAARFPVTATSANISGKPPSPRLEEIVRDLDAVDLVLDAGDCLDMEPSTVIDLTVNPPRVLRRGKGPLDPVLLRGAGDV | not failed
MLIRPFLQYILGAVLLAYVLYPLQIRLETYVSPMLAALSLVTLAVTGFVAPVVVVLASIMESADRILREFGTDPVQLDILESRIKGLTGVEVDIAGELVSSGRDIGTIIVERSTQAFSTITFHLIGIALALFLIYYLLKDGDDLVDWLHRTVPLPVDVQRDFYAEIDDVMLGVLFGHVFVAIVQGIVAGVGLAATGVPNAMFWTAVMVVLAMVPLIGTIPVWGGAVIYLYATDEPLLAVGLFLYSVIIVGLTDDYLRPFAVDRYAKLNPAVILLGILGGAYAFGVMGLLFGPVVLGALKAALRVGLDTWSQIDDGNIG | failed
MLISAIIGGVEYINLYRFPEIPLVGFTLIGVVLSIFLGFKNTACYDRWWEARKLWGVLIATSRHFDRDCRILTQARRERVIQHVIVFANVLRDRLRRQTANPTELIQTSGMSQQALTQLYQQNNAPQYTLSLIQWELLQALKEGEISDIIYAQMNKNVADLSVVQTGCDRIANTPIPFAYSVLLNRTVYFFCFMLPFSLGSLLGLATPLLVGILAYTFLGLDALSTEIEEPFGTQSNDLPLDAMVRSIEIELLGTLGKPTPPPIQAQDNNLL | failed
MLISIESKEHYRILCIDGGSTDQTIPMIERLQRELKHISLIQLQNASIATCINKGLMDIKMTDPHDSDAFMVINPTSIVLPGKLDRLTAAFKNNDNIDMVIGQRAYNYHGEWKLKSADEFIKDNRIVTLTEQPDLLSMMSFDGKLFSAKFAELQCDETLANTYNHAILVKAMQKATDIHLVSQMIVGDNDIDTHATSNDEDFNRYIIEIMKIRQRVMEMLLLPEQRLLYSDMVDRILFNNSLKYYMNEHPAVTHTTIQLVKDYIMSMQHSDYVSQNMFDIINTVEFIGENWDREIYELWRQTLIQVGINRPTYKKFLIQLKGRKFAHRTKSMLKRLEHHHHHH | failed
MLISKKTLGVLIPDIFSFSNDQIAQKLEQMGIEVESIKQFNSPDYLQLAKVVSIQPHPHDNKLFICELQIDKNKFINVVSNANNINNPDNINKFVIVAKKGTELLNGLIVKTQNIKGIISEGILCSYIDINPFSRQIIEKTEVADAIIIDHVSNDHDWNQYLSFLSLDDVIFDVKTPTNRADLHSLIFLAKELGVLLKTKTFLKQKSSVVNHDFFKFPLNLKNKLKANYFGGLFLRQINQHSSPWTVKGLLINQMIKPVNYYVDKANLVTVFTAQPIHCHDADRIVGNIELKQATHNETFVGLDDKQYEIEPGDIVVCDEKGIIALVGIIGSKRTMVQPTTTNIFFEVVNCNSETIKQTAKRFLINNFASKFMVKPISLLATDNCLNYLQNSLLTTDNIGKISHFSSSLKVEPFSKKLTVNFHKIRQLIGIEKKELTDQTIKKSLSQLGFKVDNQLLKIPSYRQDINTWQDISEEIVKLIDINKLKPIGITSSFNFEKSSYFNTFNALTKLRKKLQTLGFHNVITYQLTDQKSAKTFNLFNLENFITIKNPVSQNHSVMRVSLIDSLLKVLKTNNNYKNELVNIFEFSFIKTQNNSELHLAVLWVEKLFTSSFNPMQGISNDVFTMKGLAKLIVANLGFSCDFEPLDDSDYFVNNQSLKIVVFNEQIGFIGLIKESLLNNYDLNNKPIYCLEINLDRMLSSLNRIEKNYLGYSKLQPVCKDLTFSFTNPASHFDQFANMIKRITGIESWKLISVFETMQNNQLITKYTVRYFLKNDANKPLTNQTIELITNNLKLQCEKLKIKLDI | failed
MLISLIVPIYNVEGFLPRCLDSIIKQEYQNLEIVLVNDGSTDQSGLICDQYAEKDERFIVFHKENGGVSSARNVGLNKANGNYIGFVDPDDWIEPNMINKLYELIIQHKADIAMCGYVKEDINGLLISRPVELSTKILNKEDTLNSILNPNDFRGFLCNKLFSVDLFRKKNLYLDEDIHFCEDLLFCCQAILESKQIVYDSTPYYHYIIHNNNASKSNFSFKKLTALNSLDNIINLLNDQKGIELEQYKNYYMHLNISLLMNGIHEDKIRRQDKERLKKNLYKFKINDLTSKFVKFSCVLARLNLNLYYFIWKNAKPSNLEHHHHHH | failed
MLIVSGCSSSQNNNGSGKSESKDSRVIHDEEGKTTVSGTPKRVVVLELSFLDAVHNLGITPVGIADDNKKDMIKKLVGSSIDYTSVGTRSEPNLEVISSLKPDLIIADAERHKNIYKQLKKIAPTIELKSREATYDETIDSFTTIAKALNKEDEGKEKLAEHKKVINDLKAELPKDENRNIVLGVARADSFQLHTSSSYDGEIFKMLGFTHAVKSDNAYQEVSLEQLSKIDPDILFISANEGKTIVDEWKTNPLWKNLKAVKNGQVYDADRDTWTRFRGIKSSETSAKDVLKKVYNK | failed
MLKEKAGVIAGTIWNALNETEGMTAKQLKKATKLVDKDLFLGLGWLLREDKVSVEEVEGELFIKLI | failed
MLKGFNSGDISYEILEKKKENIEQQALERFLEEKSEKENKHIPKEDMLFNSKDSIAMERIVGKNDLFPISYLQIGLNISKSVCRISIRDSRGVVVGYGTGFLVAPNIILTNNHVINSYEVASNSIAEFNYQDDENFMPCPTYNFRLNPQTFFITNVKLDFTLVALNENVTNQKHLEDFGYLKMTQKEGTILPEEYVSIIQHPKGGPKSVTLRENKVSGLKENFIHYLTDTEPGSSGSPVFNDQWTLVALHHSGVPNPEIKDEWIANEGILISAIVNYLAKKYSSLKENEQAIIKEIVPDIELPKENNITSSVDDEPLGYNPLFLGKDYEIPLPKLSKEMEKDTAKTEDGNYVLDYIHFSIVMKKSRGLAYFTAVNIDGTDAVKIRRTADNWKFDPRISQNYQYGDEVYVNNDLDRGHLVRRTDPNWGKNALKANEDTFYFTNSTPQHKNLNQKTWVELEDYIFRNAVLNQFKVSVFTGPVFREDDMIYRQKYQIPAEFWKVVVMLKEDGNISATAYLQTQKNMIENLEFAYGEYKTYQVPVRNIEKLTGLDFGNLSKFDPMANIEATGIVITGPESIKF | failed
MLKGFTRSSISPQLCSLYFKGLVGDDSLAGFGVAICGHRDDILFQLNAPIHGSDITVLEAELMALKRGLIEAAGFKSSFTIFVEGSSIRYVSELARATIVSELSISVDPPSSSLNGIEKLKLEDVIVWNVVNPYASTAKFGKSENVASMWKVPTHDRTFRRMHQSNLQFTFDFLGCWIGVAIRFATHAEQNGSKEVALIEQ | failed
MLKILATQFNGKLQTLTKQEDELFDVVRLLAQALVGQGKVYLDAYGEFEGLYPMLSDGPDQMKRVTKIKDHKTLHAVDRVLIFTPDTERSDLLASLARYDAWHTPYSIITLGDVTETLERSIAPLALKFDKGLLPAEDGSRHGLPSLALGAFLLTHILTQLQEMTEEWE | not failed
MLKKLFAPPQKRERLSAEEIKHKYPRYRVQVLISIFVGYMGYYFVRNTTSILSGILNMSATEIGIITCASYIAYGLSKFISGLISDESNSKIFLPVGLFLTGLVNVLIGVIPSVITSIWLFTIMYLINGWLQGMGYPPGARTLVYWYDNKERIKYATIWNLSHNFGGAIAPILTGVGLALAGNDSLNQARAAYWFPGVVACLLAVLVYFLQEDTPESIGLPPIEEYHKEQYTNVVDSSDILEEPEVLGMGEIIKKYILPNTKLMWASLYSIFVYILRYGIVSWTPKFLATSVQDGGKGITATAGMGGFSLFEIGGIIGMLTAGYLSAKVFKNSKPLTNVAFLVVAILLLAAYWFIPAGPQYMALDFIILLGLGASIYGPVMMVGLYAMELVPKAAAGAASGLTGTFSYVGGATIATLAIGIIIDHFGWGVAFIIFGISGFAAIVCTLLSRDKSLEYW | failed
MLKLSNFGPGALVAAAFIGPGTVVTASLAGANFGYALLWALLFSVVACVILQEMSARIGLVTQAGLGENIRNNLTSGWLRWLALLLIFSAIAIGNSVYQGGNLSGASLGASELLGPVPVLDVWLSNAWALIIGIIALLILWSGNARVIERALIVMVLLMSVAFIGTFLLTDPDWGAVFNGTFGFSMPTGATLTVVALIGTTVVPYNIFLHASSVSKKWKTAEELPAARRDLFLSIPFGGLISMAIVATAASAFFGQQVEIESAGDLAESLRPLFGDGATYLMAIGLFAAGISSATTAPLASAYALCGIMGWSVNLRSRAFRIIWFTILVIGIIISSVGIKPVTVIWFAQVANGILLPIIVGFLWWLCQSPLLGKYRNSLLQNILAAIIFLISVVLSGRSLGSAFGFW | failed
MLKPLVLSDSSPVRPRDLTLLDQEEAGLVSTFINRPPIDIFKILPSKDDPDWPSFQQILSKFPDTEHLCPDGGLVNNSFILDIVLPQKWIDHRVCNPRFFQSIVSTTCYFMGFVFYADLNLGFMHFSPFHIAII | failed
MLKQTSDSPVGTLFIIIEDAHITKISYDEPTNWEILAGEKGEIAIYQQLLEQLAGYFEGEREVFDLPIFLQGTPFQQRVWQALSEIPYGVVVSYKDIAIAAGSPKAVQAVGQANRANPIPILIPCHRCVKSDGALGGYNGADIDKKQYLLALEKGLRLS | failed
MLKRTLLACLALSCSFPSYSADYITENLSTYMRKGAGDQYKIAGTIQAGEKITVLDRKDRFVLIRDSRNREGWVLNNEISQTASPKELIPELQQQIQDLSSKLNKIDNDWQQRTAEMQRRSQQAEQQSSELLDENTQLKRKLEVLKNKNRDLETMQDAEKREIVIQWFIYGGSVLTVGLLLGLLIPFILPRRRRNNGWSLEHHHHHH | failed
MLKSQEIRQKAPELDSLRLGSGWKSEELNKAQIIIESSFGHSHPGSAHLDTLVDEAFKSIDDNGGRGAKYFVTDICDGETQGHDGMNYSLASRDIMTNLMEIHVQATPFDAGIFIASCDKAVPAHLMAIARLDMPSILVPGGIMNAGPNMLTLEQIGTYNAQYERGEITKEQYEHYKQNACPSCGACSFMGTASTMQVMSEALGIALPGTALIPVTSKELKLAAKNAGKQILKLIELNIKPSEIMTKKAFENAIMVHAAIAGSSNCLLHIPAIAHELGMDIEPELFDEIHKKIPYILNIRPSGFYPGSYFWNAGGVPAIMEEIKEFLHLDVMTVTGKTLGENLEDLKNSGYYEEHDKLITSLGIKKEDVIRTKENPIQSQGAIAILKGNLAPGGAVVKHSAISKKLMQVVLKARVFNCEEDAIKSVLTKNIKPGDAVFVRYEGPKGSGMPEMFYTTEAIASDHELVDSTALITDGRFSGATRGPAIGHVSPEASEGGPIAFVQEGDLIKIDIPARKLDIIGTNGIEKSEKEIENILKERSQNWVKPAPRYTKGILGLYTRCASSPMKGGYME | failed
MLKTILSISGKPGLFKLVSHGKNMLIVESLADKKRVPAYAKDKVISLGDIAIYTNEAEVPLHEVLTNVKNKENGQQASVSTSAKPDELRAYFAEILPNFDRERVYPSDIKKLISWYNILIGAGLTEFTPEGSATEEASVKETKKEEA | failed
MLKTLAVANYRSINKLVIPLGRLNLVTGANGSGKSNLYRALRLLAETAQGGVVNALAKEGGLESTYWAGPEQISRRMSQGEVPIQGGPRKAARRLQLGFAGEDFGYAISLGLPDSSGHFMLPGHSSPIASRFTLDPWIKRESIWGGPLYRSASALVDRQGPMIRARAGRQWEVLAQHTSSGDSLFDRVGNLSSSPEVLHLREQIRGWRFYDHLRTDSQAPARRPQLGTRTPVLHHDGRDLAAALQTIIEVGDQQALHETISDAFPESRLEIDAVPGGLFGVQFYQEGLLRPLSAAELSDGTLRYLLLVAALLTPRPPTLMVLNEPETSLHPDLLPALARLIIRASQQCQVWVVSHARRLIAALQQDPECNCIVLEKQLGQTGIVGQRMLDEPAWNWPDLEHHHHHH | failed
MLKTLLTSDVIQVVSQAKDWRDAIAISCQPLIDNGAVEARYVEAIYRSHEAIGPYYVVGPGIAMPHARPEDGVNRLSLALTVITEGVTFNAEGNDPVKLLIVLAATDSNSHIEAISQLAQLFDTASDVQALLNAKTPQDILSVIARY | not failed
